According to patent US20030114379A1 (Human Genome Sciences, published 2003):

B1: MPIF-1 Mutant-1 (the 'mature' MPIF-1 for E. coli expression, wild type with an N-terminal methionine) (ligand)
chain: MRVTKDAETEFMMSKLPLENPVLLDRFHATSADCCISYTPRSIPCSLLESYFETNSECSKPGVIFLTKKGRRFCANPSDKQVQVCMRMLKLDTRIKTRKN
B2: MPIF-1Δ23 (truncated human MPIF-1 lacking the 23 N-terminal amino acids of the mature protein, with an N-terminal Met; 77 amino acids, 8.85 kDa) (ligand)
chain: MDRFHATSADCCISYTPRSIPCSLLESYFETNSECSKPGVIFLTKKGRRFCANPSDKQVQVCMRMLKLDTRIKTRKN
notes: Delta 23

Legend:
[1] = target: cell surface receptor for MIP-1α (on human monocytes) (human); assay: cell-based or functional assay
[2] = target: the molecule itself; assay: sedimentation equilibrium analytical ultracentrifugation for self-association, at several pH values and ionic strengths (Table 10, State 'M')
Experimental: Sedimentation Equilibrium. Analytical ultracentrifugation experiments were performed on a Beckman model XL-A ultracentrifuge at 20° C. at rotor speeds 23,000, 28,000 and 40,000 rpm. Experiments were carried out at two different starting concentrations in different buffers and ionic strength to study their effect on dimerization (Table 10). Absorbance was measured at 280 nm and the data was collected as an average of five successive radial scans using a 0.003 cm step size. The data was fitted to the following equation: […]
Sedimentation equilibrium. Chemokine ability to associate is dependent on solution conditions such as pH and ionic strength. The association properties of the MPIF-1 and the full length MPIF-1 were studied using ultracentrifugation methods at different pH and ionic strengths. […] The monomeric state of MPIF-1 is consistent with the NMR structure and also from the calculation of the correlation time from ¹⁵N dynamics.

Binder	intracellular calcium mobilization in human monocytes, activity relative to wild type MPIF-1 [1]	binding result [2]
B1	~2 fold	
B2		no binding
